# Measurements: paper PMC5014727 (Structure (London, England : 1993), 2016)
# Several values for one entry are separate records, joined by “and”; a condition that tells them apart may be missing. Equal values may be shown once.
# B1: Ca2+-S100B dimer (ligand)
# chain: MSELEKAMVALIDVFHQYSGREGDKHKLKKSELKELINNELSHFLEEIKEQEVVDKVMETLDNDGDGECDFQEFMAFVAMVTTACHEFFEHE
# B2: chemically ligated sRAGE (extracellular soluble RAGE, VC1 ligated to C2) (domain or fragment, UniProt Q15109 23-342, looked up)
# chain: AQNITARIGEPLVLKCKGAPKKPPQRLEWKLNTGRTEAWKVLSPQGGGPWDSVARVLPNGSLFLPAVGIQDEGIFRCQAMNRNGKETKSNYRVRVYQIPGKPEIVDSASELTAGVPNKVGTCVSEGSYPAGTLSWHLDGKPLVPNEKGVSVKEQTRRHPETGLFTLQSELMVTPARGGDPRPTFSCSFSPGLPRHRALRTAPIQPRVWEPGCSAEVQLVVEPEGGAVAPGGTVTLTCEVPAQPSPQIHWMKDGVPLPLPPSPVLILPEIGPQDQGTYSCVATHSSHGPQESRAVSISIIEPGEEGPTAGSVGGSGLGTLA
# How the values were obtained:
# [1] = biological target: sRAGE ECD (Homo sapiens) (UniProt Q15109); conditions: cited from earlier work
# [2] = biological target: full length RAGE fused with yellow fluorescence protein (human) (UniProt Q15109); assay: FRET or BRET
# [3] = biological target: B2; assay: ELISA
# [4] = biological target: the molecule itself; assay: 15N NMR relaxation
# [5] = biological target: the molecule itself; assay: cross-linking
molecule,measurement,setting,value
sRAGE ECD (from UniProt Q15109),Kd,[1],100 µM
ΔDAD-DIAPH1 fused with cyan fluorescent protein (from UniProt O60610 1-1272) (natural protein),FRET efficiency (with Ca2+-S100B),[2],10%
same,FRET efficiency (without Ca2+-S100B),[2],8%
B1,Kd,[3],0.49 ± 0.043 µM
B2,Kd,[4],120 ± 12 µM
same,stoichiometry N,[5],2 and 3 and 4
